Measurements from patent US20230025360A1, “PROCESSES FOR GENERATING SUPERIOR ANTI-TUMOR T-CELL EFFECTOR AND MEMORY CELLS” (MUSC Foundation for Research Development, priority 2016, published 2023).

Assays:
Splenic T cells [1] = assay: Splenic T cells activated with anti-CD3/28 in presence of α-KG; format: cell-based, C57BL/6 mouse; conditions: α-KG pretreatment for three days
Experimental: Splenic T cells from C57BL/6 mouse were activated with anti-CD3/28 (each 2 μg/ml) either in absence or presence of α-KG for three days, after which: (FIG. 10A) Glucose uptake was determined using 2NBDG, and (FIG. 10B) Tscm phenotype was evaluated using CD62L and CD44 cell surface expression. N=2.

Pmel T cells = Pmel T cells activated with cognate antigen in presence of rTrx; format: cell-based
Experimental: (FIG. 7A) Three day activated gp100 epitope reactive splenic T cells from Pmel and Pmel−Trx mouse were re-stimulated overnight with cognate antigen, and supernatant was evaluated for secreted Trx by ELISA as per protocol. N=3 **p<0.005. (FIG. 7B) Pmel T cells were labeled with CFSE and stimulated with cognate antigen gp100 for three days. The expression of Trx was then determined using flurochrome conjugated antibody by gating on the cells in different phase of division. (FIG. 7C) CFSE labeled Pmel T cells were stimulated with cognate antigen in absence or presence of rTRx at various doses. Pmel T cells activated with cognate antigen in presence of rTrx (5 μg/ml) were used at day 3 to determine the expression of Trx (FIG. 7D), iGSH (FIG. 7E), pAMPK (FIG. 7F), stemness genes using qPCR (FIG. 7G), Annexin V upregulation after 4 hr of TCR restimulation with cognate antigen hgp100 or non-cognate ova peptide (FIG. 7H), and Glucose uptake using 2NBDG (FIG. 7I). N=2-3. Numerical values=MFI. *p<0.05, **p<0.01. (FIG. 7J) Melanoma epitope gp100 reactive T cells obtained from Pmel TCR transgenic mouse were activated with cognate antigen either in presence or absence of recombinant thioredoxin (rTrx) for three days before being adoptively transferred to the immunocompetent C57BL/6 recipient mice with ten day subcutaneously established murine melanoma B16-F10. Tumor measurements from two different experiments where Pmel and Pmel+rTrx were transferred to 9 recipient mice was compiled for this presentation. ***p value<0.01 obtained at last time point of the tumor measurement before the experiment was terminated.
To get an insight into the mechanism that may be responsible for the ability of co-injected Pmel T cells to respond to tumor rechallenge (as in FIG. 6), it was determined if Pmel−Trx secreted Trx upon antigen restimulation. […] Further, to determine how secreted Trx would have modulated the Pmel T cells, recombinant Trx was used during antigen induced in vitro Pmel activation and compared the phenotype with untreated Pmel and Pmel−Trx T cells. […] It has also been shown recently that Trx1-mediated reduction of Cys130 and Cys174 is essential for AMPK function, and decreased Trx levels could lead to oxidation of Cys130 and Cys174 by inducing aggregation that prevents its activation and phosphorylation by AMPK kinases (Shao D et al., 2014, Cell Metab, 19(2):232-45).

murine melanoma B16-F10 = assay: Adoptive transfer of T cells activated in presence of rTrx; format: in vivo, C57BL/6 mice; conditions: gp100 reactive effector T cells generated in presence of rTrx
Experimental: (FIG. 7A) Three day activated gp100 epitope reactive splenic T cells from Pmel and Pmel−Trx mouse were re-stimulated overnight with cognate antigen, and supernatant was evaluated for secreted Trx by ELISA as per protocol. N=3 **p<0.005. (FIG. 7B) Pmel T cells were labeled with CFSE and stimulated with cognate antigen gp100 for three days. The expression of Trx was then determined using flurochrome conjugated antibody by gating on the cells in different phase of division. (FIG. 7C) CFSE labeled Pmel T cells were stimulated with cognate antigen in absence or presence of rTRx at various doses. Pmel T cells activated with cognate antigen in presence of rTrx (5 μg/ml) were used at day 3 to determine the expression of Trx (FIG. 7D), iGSH (FIG. 7E), pAMPK (FIG. 7F), stemness genes using qPCR (FIG. 7G), Annexin V upregulation after 4 hr of TCR restimulation with cognate antigen hgp100 or non-cognate ova peptide (FIG. 7H), and Glucose uptake using 2NBDG (FIG. 7I). N=2-3. Numerical values=MFI. *p<0.05, **p<0.01. […]
Further, it was determined if the strategy to activate and expand in presence of rTrx ex vivo would render tumor epitope reactive T cells with robust anti-tumor property.

NF-KB = NF-KB activity after addition of recombinant Trx; format: cell-based
Splenic T cells [2] = assay: Homeostatic proliferation of IL2 or IL2+IL4 activated T cells in Rag1−/− recipients; format: in vivo, C57BL/6 mice; conditions: IL2+IL4 vs IL2, tracked at day 28
Text: Splenic T cells from C57BL/6 mice on Thy1.1 or Thy1.2 background were activated for three days either in 1L2 or IL2+IL4 respectively, and mixed in 1:1 ratio before injecting i.v. in Rag1−/− recipients to determine any differences in homeostatic proliferation. Transferred T cells were tracked at day 28 by staining Thy1.1 and Th1.2 cells in various lymphoid and non-lymphoid tissues.

[3] = TCR re-stimulation with cognate antigen (hgp100), cultured three days with recombinant Trx

Molecule: O=C(O)CCC(=O)C(=O)O [α-ketoglutarate]
- T cell phenotype (CD62L and CD44 cell surface expression) (Splenic T cells [1]): renders Tscm phenotype

B1: rTrx: recombinant thioredoxin added during ex vivo T cell activation (protein, UniProt P10599 2-105, looked up)
Thioredoxin: VKQIESKTAFQEALDAAGDKLVVVDFSATWCGPCKMIKPFFHSLSEKYSNVIFLEVDVDDCQDVASECEVKCMPTFQFFKKGQKVGEFSGANKEKLEATINELV
- toxicity / cell division during T cell activation (Pmel T cells; CFSE labeled Pmel T cells, rTrx at various doses): non-toxic
- cell death as measured by Annexin V levels (Pmel T cells; [3]): reduced cell death
- glucose uptake (2NBDG) (Pmel T cells; [3]): reduced
- pAMPK (Pmel T cells; compared to activated Pmel T cells): increased pAMPK
- Lef1 gene expression (qPCR, stemness genes) (Pmel T cells; rTrx 5 μg/ml, day 3): up-regulation
- Tcf7 gene expression (qPCR, stemness genes) (Pmel T cells; rTrx 5 μg/ml, day 3): up-regulation
- expression of Trx (Pmel T cells; rTrx 5 μg/ml, day 3): increased expression
- expression of iGSH (Pmel T cells; rTrx 5 μg/ml, day 3): increased expression
- survival of transferred T cells in vivo (murine melanoma B16-F10): survive longer
- tumor control (murine melanoma B16-F10): much improved tumor control
- NF-KB activity (NF-KB): decrease

B2: IL4: cytokine used with IL2 to pretreat T cells for three days (protein, UniProt P05112 25-153, looked up)
Interleukin-4: HKCDITLQEIIKTLNSLTEQKTLCTELTVTDIFAASKNTTEKETFCRAATVLRQFYSHHEKDTRCLGATAQQFHRHKQLIRFLKRLDRNLWGLAGLNSCPVKEANQSTLENFLERLKTIMREKYSKCSS
- persistence of pretreated T cells in vivo (Splenic T cells [2]): improved persistence
